The values below come from publication PMC6336796 (Nature Communications, 2019).

The target in this experiment is T1, Flag-CENP-E (UniProt Q02224 1-2701).
T1 construct: CENP-E; Primers are in Supplementary Data 3; also called Flag-CENP-E protein; source: HEK293T, transfected, mitotic cells
In words: pull-down; Flag-CENP-E purified from mitotic HEK293T lysate and eluted with 3x Flag peptide, incubated with Myc-GFP or Myc-HOIP bound to anti-c-Myc affinity gel; blot with anti-Flag. As to conditions: both partners purified.

T1 sequence (Q02224 whole entry): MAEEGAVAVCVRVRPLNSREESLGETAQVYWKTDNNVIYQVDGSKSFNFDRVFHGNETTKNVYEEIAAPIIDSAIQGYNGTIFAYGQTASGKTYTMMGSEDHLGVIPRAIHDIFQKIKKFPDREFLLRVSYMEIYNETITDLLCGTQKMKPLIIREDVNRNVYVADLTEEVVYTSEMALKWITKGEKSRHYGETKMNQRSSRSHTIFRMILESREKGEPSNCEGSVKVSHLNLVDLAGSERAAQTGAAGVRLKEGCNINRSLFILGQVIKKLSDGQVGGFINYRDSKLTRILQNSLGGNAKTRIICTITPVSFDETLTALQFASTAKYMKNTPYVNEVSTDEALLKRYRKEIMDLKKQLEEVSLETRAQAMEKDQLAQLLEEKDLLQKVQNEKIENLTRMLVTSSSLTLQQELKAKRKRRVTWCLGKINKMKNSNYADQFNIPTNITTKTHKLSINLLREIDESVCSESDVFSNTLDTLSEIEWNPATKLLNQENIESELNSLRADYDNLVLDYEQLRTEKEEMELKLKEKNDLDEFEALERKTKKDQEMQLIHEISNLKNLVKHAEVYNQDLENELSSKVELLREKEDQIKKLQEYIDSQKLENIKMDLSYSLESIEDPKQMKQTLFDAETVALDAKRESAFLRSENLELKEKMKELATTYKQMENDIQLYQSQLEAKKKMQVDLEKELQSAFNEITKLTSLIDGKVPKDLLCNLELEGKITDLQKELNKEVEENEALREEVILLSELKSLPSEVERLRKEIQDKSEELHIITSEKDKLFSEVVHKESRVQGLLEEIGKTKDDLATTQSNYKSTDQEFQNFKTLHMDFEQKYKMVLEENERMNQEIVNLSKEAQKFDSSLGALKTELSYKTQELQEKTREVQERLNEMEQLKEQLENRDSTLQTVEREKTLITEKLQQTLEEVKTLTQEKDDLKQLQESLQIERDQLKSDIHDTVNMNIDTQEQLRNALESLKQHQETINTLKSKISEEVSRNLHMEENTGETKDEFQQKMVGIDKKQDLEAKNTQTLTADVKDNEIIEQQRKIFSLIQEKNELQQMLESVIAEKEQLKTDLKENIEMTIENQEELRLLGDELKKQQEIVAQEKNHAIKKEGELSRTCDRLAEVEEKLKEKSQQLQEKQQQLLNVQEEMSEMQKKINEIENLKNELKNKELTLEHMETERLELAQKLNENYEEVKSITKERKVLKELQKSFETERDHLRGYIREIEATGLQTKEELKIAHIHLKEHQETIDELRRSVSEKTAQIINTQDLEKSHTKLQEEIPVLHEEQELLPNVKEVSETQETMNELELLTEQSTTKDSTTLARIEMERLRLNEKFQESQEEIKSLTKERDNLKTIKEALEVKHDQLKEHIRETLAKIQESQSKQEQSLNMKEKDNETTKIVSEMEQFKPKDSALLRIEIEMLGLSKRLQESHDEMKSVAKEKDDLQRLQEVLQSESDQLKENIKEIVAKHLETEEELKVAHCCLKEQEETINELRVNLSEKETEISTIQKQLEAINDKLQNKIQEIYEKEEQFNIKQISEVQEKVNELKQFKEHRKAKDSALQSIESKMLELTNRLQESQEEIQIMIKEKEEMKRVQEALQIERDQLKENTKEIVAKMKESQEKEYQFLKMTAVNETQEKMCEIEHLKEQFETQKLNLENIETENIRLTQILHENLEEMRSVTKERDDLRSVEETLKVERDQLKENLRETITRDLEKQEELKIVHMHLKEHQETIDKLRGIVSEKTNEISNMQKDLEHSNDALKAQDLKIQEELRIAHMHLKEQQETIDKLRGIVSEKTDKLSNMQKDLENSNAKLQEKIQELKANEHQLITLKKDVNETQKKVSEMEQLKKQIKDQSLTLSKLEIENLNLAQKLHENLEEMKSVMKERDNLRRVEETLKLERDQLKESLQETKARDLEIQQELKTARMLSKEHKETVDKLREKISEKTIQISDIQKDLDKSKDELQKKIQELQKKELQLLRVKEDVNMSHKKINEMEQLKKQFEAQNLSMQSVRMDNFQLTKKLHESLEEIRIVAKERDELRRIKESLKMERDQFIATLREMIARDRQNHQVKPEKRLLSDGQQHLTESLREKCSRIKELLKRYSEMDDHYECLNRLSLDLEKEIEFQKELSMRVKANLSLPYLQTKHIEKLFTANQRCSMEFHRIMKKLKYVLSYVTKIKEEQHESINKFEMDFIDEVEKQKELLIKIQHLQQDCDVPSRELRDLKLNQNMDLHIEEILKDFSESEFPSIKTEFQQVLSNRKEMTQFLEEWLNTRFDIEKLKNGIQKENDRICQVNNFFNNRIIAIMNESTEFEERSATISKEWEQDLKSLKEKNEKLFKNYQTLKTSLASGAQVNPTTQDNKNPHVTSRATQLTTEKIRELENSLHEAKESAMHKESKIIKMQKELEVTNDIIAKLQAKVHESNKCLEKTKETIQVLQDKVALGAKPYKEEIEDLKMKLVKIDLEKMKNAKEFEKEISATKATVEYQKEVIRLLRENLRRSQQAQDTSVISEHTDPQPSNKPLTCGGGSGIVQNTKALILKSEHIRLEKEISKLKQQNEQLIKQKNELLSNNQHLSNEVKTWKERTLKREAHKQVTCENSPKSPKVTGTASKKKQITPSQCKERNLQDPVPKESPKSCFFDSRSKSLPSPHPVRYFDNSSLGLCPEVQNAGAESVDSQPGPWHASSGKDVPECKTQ

B1: Myc-HOIP (enzyme, UniProt Q96EP0 1-1072, looked up)
chain: MPGEEEERAFLVAREELASALRRDSGQAFSLEQLRPLLASSLPLAARYLQLDAARLVRCNAHGEPRNYLNTLSTALNILEKYGRNLLSPQRPRYWRGVKFNNPVFRSTVDAVQGGRDVLRLYGYTEEQPDGLSFPEGQEEPDEHQVATVTLEVLLLRTELSLLLQNTHPRQQALEQLLEDKVEDDMLQLSEFDPLLREIAPGPLTTPSVPGSTPGPCFLCGSAPGTLHCPSCKQALCPACDHLFHGHPSRAHHLRQTLPGVLQGTHLSPSLPASAQPRPQSTSLLALGDSSLSSPNPASAHLPWHCAACAMLNEPWAVLCVACDRPRGCKGLGLGTEGPQGTGGLEPDLARGRWACQSCTFENEAAAVLCSICERPRLAQPPSLVVDSRDAGICLQPLQQGDALLASAQSQVWYCIHCTFCNSSPGWVCVMCNRTSSPIPAQHAPRPYASSLEKGPPKPGPPRRLSAPLPSSCGDPEKQRQDKMREEGLQLVSMIREGEAAGACPEEIFSALQYSGTEVPLQWLRSELPYVLEMVAELAGQQDPGLGAFSCQEARRAWLDRHGNLDEAVEECVRTRRRKVQELQSLGFGPEEGSLQALFQHGGDVSRALTELQRQRLEPFRQRLWDSGPEPTPSWDGPDKQSLVRRLLAVYALPSWGRAELALSLLQETPRNYELGDVVEAVRHSQDRAFLRRLLAQECAVCGWALPHNRMQALTSCECTICPDCFRQHFTIALKEKHITDMVCPACGRPDLTDDTQLLSYFSTLDIQLRESLEPDAYALFHKKLTEGVLMRDPKFLWCAQCSFGFIYEREQLEATCPQCHQTFCVRCKRQWEEQHRGRSCEDFQNWKRMNDPEYQAQGLAMYLQENGIDCPKCKFSYALARGGCMHFHCTQCRHQFCSGCYNAFYAKNKCPEPNCRVKKSLHGHHPRDCLFYLRDWTALRLQKLLQDNNVMFNTEPPAGARAVPGGGCRVIEQKEVPNGLRDEACGKETPAGYAGLCQAHYKEYLVSLINAHSLDPATLYEVEELETATERYLHVRPQPLAGEDPPAYQARLLQKLTEEVPLGQSIPRRRK
notes: HOIP (RNF31) wild type; Construct supplied by Dr. Kazuhiro Iwai; also called RNF31; purified HOIP; source: HEK293T, transfected, mitotic cells
As to B1, the binding result is listed as “binds”.
